Results on one molecule are retold here after publication PMC2685004, “Recruitment of a SAP18-HDAC1 Complex into HIV-1 Virions and Its Requirement for Viral Replication” (PLoS Pathogens, 2009).

Test [1] deals with T1, 6H(hexa-histidine)-INI1/hSNF5 (human, UniProt Q12824 1-385).
T1 construct: also called His-INI1; source: Ni-NTA and hydroxylapatite purified
Description: pull-down; glutathione sepharose beads with GST-SAP18 incubated with purified IN and INI1 together; Western blot. As to conditions: both partners purified.

Test [2] addresses T1, 6H(hexa-histidine)-INI1/hSNF5. Description: pull-down; glutathione sepharose 4B beads with 5 µg GST or GST-SAP18, incubated with 2 µg His-IN or His-INI1, one at a time; 20 mM HEPES-KOH pH 6.8, 200 mM NaCl, 0.1 mM EDTA, 2-5 mM DTT, 0.1% IGEPAL, 100 µg/ml ethidium bromide, 10 U DNaseI; Western blot. As to conditions: both partners purified. A general note: Immunoblotting shows a protein as a band on a membrane.

T1 sequence (Q12824 whole entry): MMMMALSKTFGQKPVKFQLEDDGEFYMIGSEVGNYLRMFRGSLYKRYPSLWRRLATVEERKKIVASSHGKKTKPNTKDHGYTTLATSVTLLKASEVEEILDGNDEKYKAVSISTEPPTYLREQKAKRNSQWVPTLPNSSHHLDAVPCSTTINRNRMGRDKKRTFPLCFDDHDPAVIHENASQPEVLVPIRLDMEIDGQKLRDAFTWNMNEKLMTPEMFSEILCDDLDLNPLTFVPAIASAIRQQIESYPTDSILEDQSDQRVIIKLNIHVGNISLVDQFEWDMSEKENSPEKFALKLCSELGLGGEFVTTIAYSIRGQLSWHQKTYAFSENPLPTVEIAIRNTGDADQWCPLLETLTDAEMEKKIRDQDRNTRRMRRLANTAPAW

B1: GST-SAP18 (natural protein, UniProt O00422 1-153, looked up)
chain: MAVESRVTQEEIKKEPEKPIDREKTCPLLLRVFTTNNGRHHRMDEFSRGNVPSSELQIYTWMDATLKELTSLVKEVYPEARKKGTHFNFAIVFTDVKRPGYRVKEIGSTMSGRKGTDDSMTLQSQKFQIGDYLDIAITPPNRAPPPSGRMRPY
notes: also called GST (glutathione-S-transferase)-SAP18; pGEX-SAP18
Take B1: the binding result in test [1] and in test [2] was “binds” each time.
